Changes are numbered by the printed parent chain. Entries after “also recorded” stand apart in the source; their conditions may differ. Where two headings read alike, the source gives them in different places.
Columns and labels:
[1] = system: Hoxa9-Meis1 immortalized AML model cells; assay: Growth deficit of construct-transduced AML cells versus non-transduced cells in same well; assay type: cell-based, murine; settings: for Activity: activity based upon growth deficit versus non-transduced cells in same well, constructs retrovirally transduced into AML cells
Sin3 = assay: method not stated
[2] = system: Hoxa9 target genes (SOX4, CD34, FLT3R, FOXP1, DNAJC10); assay: QPCR of direct Hoxa9 target genes in Hoxa9/Meis1 cells; settings: 17 days after transduction, versus GFP control
[3] = system: differentiation-specific genes (S100A8, myeloperoxidase, neutrophil elastase); assay: QPCR of differentiation-specific genes in transduced Hoxa9-Meis1 cells; assay type: cell-based; settings: Hoxa9-Meis1 murine cells, versus vector control
[4] = system: Mac-1 (CD11b), Gr-1 and FLT3R expression; assay: Flow cytometry of cell surface markers after transduction; assay type: cell-based, murine; settings: 30 days
[5] = system: Hoxa9-Meis1 murine AML cells; assay type: in vivo, mice; settings: for Median Survival days: mouse, in vivo; for AML latency in vivo: versus vector control
[6] = listed as 3X glycine linker repressor construct
[7] = Hoxa9-Meis1 cells, retroviral expression

S2 mutant: S2 with DNA base contact residues of HFP domain mutated to alanine, SEQ ID NO: 32 (DPERQVKAWFAARRAKMKKINGGDPVSQVSAWFGAKRIAYKKNI)
growth phenotype (growth deficit / growth inhibition) [1]: less growth inhibition

wild-type SID (Sin3-interacting domain of Mad1 protein) (from UniProt Q05195 5-29) (peptide)
Kd (Sin3): 70 nM

B1: S3: Full SID-3XNLS-HFP with GGG linker, SEQ ID NO: 30 / 35 (protein)
chain: MATAVGMNIQLLLEAADYLERREREAEHGYASMLPYDPKKKRKVDPKKKRKVDPKKKRKVGGDPERQVKIWFQNRRMKMKKINGGGDPVSQVSNWFGNKRIRYKKNIG
transcripts of Hoxa9 target genes [2]: suppresses multiple targets of Hoxa9; also recorded: suppresses transcripts of Hoxa9 target genes
transcripts of Hoxa9 target genes [2, 6]: suppression of direct Hoxa9 transcriptional target genes
growth phenotype (growth deficit / growth inhibition) [1, 7]: more growth deficit
growth phenotype (growth deficit / growth inhibition) ([1]; Hoxa9-Meis1 cells, retroviral expression, listed as HFP): significant growth defects
Activity [1]: ✓
HFP-expressing cells as % of the population ([1]; by day 8, IRES GFP vector, GFP vector control 80%): 2%
mRNA levels of differentiation-specific genes [3]: higher mRNA levels
mRNA levels of differentiation-specific genes [3, 6]: mRNA upregulation of differentiation-specific genes
mRNA levels of differentiation-specific genes ([3]; listed as repressor): elevates differentiation-specific genes
cell-surface expression of myeloid differentiation markers Mac-1 and Gr-1 [4, 6]: increases in cell-surface expression of myeloid differentiation markers
surface expression of Flt3 receptor [4, 6]: decreased surface expression
cell-surface expression of myeloid differentiation markers Mac-1 and Gr-1 ([4]; listed as repressor HFP): increases expression of Gr-1 and Mac-1 differentiation markers
surface expression of Flt3 receptor ([4]; listed as repressor HFP): decreases expression of Flt3 receptor
Median Survival days [5]: 94 days
AML latency in vivo [5]: longer latency in vivo that was statistically significant
AML latency in vivo ([5]; listed as HFP repressor): significantly longer latency
AML latency in vivo ([5]; listed as repressor): longer latency

B2: S3 mutant: S3 with DNA base contact residues mutated to alanine, SEQ ID NO: 33 (HFP domain) / 46 (protein)
chain: B1 chain with I70A, Q73A, N74A, M77A, N94A, N98A, R102A
transcripts of Hoxa9 target genes ([2]; listed as mutant construct): little to no repression
growth phenotype (growth deficit / growth inhibition) [1, 7]: less growth inhibition

B3: Fusion protein 3: SID-3XNLS-HFP, SID of SEQ ID NO: 12, SEQ ID NO: 38 (protein)
chain: MVGMNIQLLLEAADYLERREREAEHGGDPKKKRKVDPKKKRKVDPKKKRKVGGDPERQVKIWFQNRRMKMKKINGGGDPVSQVSNWFGNKRIRYKKNIG
Activity [1]: ✓

B4: S2: SID-3XNLS-GG linker-HoxA9-GG-PBX fusion protein, SEQ ID NO: 29 (protein)
chain: MATAVGMNIQLLLEAADYLERREREAEHGYASMLPYDPKKKRKVDPKKKRKVDPKKKRKVGGDPERQVKIWFQNRRMKMKKINGGDPVSQVSNWFGNKRIRYKKNIG
growth phenotype (growth deficit / growth inhibition) [1, 7]: more growth deficit
Median Survival days [5]: 67 days

B5: Fusion protein 4: SID-3XNLS-HFP, SID of SEQ ID NO: 13, SEQ ID NO: 39 (protein)
chain: MVGMNIQLLLEAADYLERRERGGDPKKKRKVDPKKKRKVDPKKKRKVGGDPERQVKIWFQNRRMKMKKINGGGDPVSQVSNWFGNKRIRYKKNIG
Activity [1]: ✓

B6: S4: SID-3XNLS-GG linker-HoxA9-GGGG-PBX fusion protein, SEQ ID NO: 31 (protein)
chain: MATAVGMNIQLLLEAADYLERREREAEHGYASMLPYDPKKKRKVDPKKKRKVDPKKKRKVGGDPERQVKIWFQNRRMKMKKINGGGGDPVSQVSNWFGNKRIRYKKNIG
Median Survival days [5]: 69 days

B7: S1: SID-3XNLS-GG linker-HoxA9-G-PBX fusion protein, SEQ ID NO: 28 (protein)
chain: MATAVGMNIQLLLEAADYLERREREAEHGYASMLPYDPKKKRKVDPKKKRKVDPKKKRKVGGDPERQVKIWFQNRRMKMKKINGDPVSQVSNWFGNKRIRYKKNIG
Median Survival days [5]: 62 days

B8: Fusion protein 10: HFP-3XNLS-Full SID, SEQ ID NO: 45 (protein)
chain: DPERQVKIWFQNRRMKMKKINGGGDPVSQVSNWFGNKRIRYKKNIGGGDPKKKRKVDPKKKRKVDPKKKRKVATAVGMNIQLLLEAADYLERREREAEHGYASMLPY
Activity [1]: ✓

Reference: patent US20160122405A1, “HOMEODOMAIN FUSION PROTEINS AND USES THEREOF” (priority 2013, published 2016)
